One data set deals with thrombin (Homo sapiens, UniProt P00734). The note with it: cited from earlier work.
Data set [1] has as its target T1, Ribonuclease S (S-protein) (Bos taurus, UniProt P61823).
T1 construct: incubated with the rest of the Ribonuclease S complex, the S-protein; purchased Novagen, Madison, Wis
T1 sequence (P61823 47-150 limits assumed): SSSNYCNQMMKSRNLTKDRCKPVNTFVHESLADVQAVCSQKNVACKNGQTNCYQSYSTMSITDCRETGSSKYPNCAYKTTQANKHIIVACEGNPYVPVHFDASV
Kind of data set: RNase S activity assay: increase in acid soluble nucleotides (A280) during hydrolysis of poly-(C), with or without 1 GHz RFMF. Format: biochemical. The note with it: for RNase S activity (digested polyC, A280) with the RFMF on compared with RFMF off: 37° C., as a function of reaction time. Here is the method: In this example, ribonuclease S was associated with a gold nanocrystal modulator (the system described in Example 1). The activity of the enzyme was controlled by induction heating of the modulator using an alternating magnetic field. The frequency of the alternating magnetic field was 1 GHz in the radiofrequency range. Accordingly, the alternating magnetic field is referred to as a radiofrequency magnetic field (RFMF). The modulator S-peptide and S-protein complex was incubated with the substrate, polyC, in solution at 37° C. The tube containing the sample was placed in a coil inside which the RFMF was generated and switched on. Activity was monitored by measuring the amount of digested polyC in the solution. PolyC was purified from the rest of the sample by precipitation with trichloroacetic acid (TCA). The activity was the amount of digested polyC, which is determined by the optical absorption of the sample at 280 nm.
The assay for measuring RNase activity was based on the measurement of increase in acid soluble nucleotides during the hydrolysis of poly-(C) (FIG. 14(a)). All concentrations were expressed as the final concentrations in the assay system. The S-protein (Novagen, Madison, Wis.) with various concentrations of S18 peptide was pre-incubated in 20 mM Na-phosphate buffer, pH 6.0; 100 mM NaCl at 37° C. for 10 minutes followed by initiating the reaction by the addition of the substrate, 0.39 mM poly [C] (sigma). At different time intervals, aliquots were quenched with 5% trichloroacetic acid (TCA). The reaction mixture was kept on ice for 5 minutes and subsequently spun at 13,000 rpm (Biofuge A) for 10 min.
Alternating magnetic fields are generated by applying an electric current to a copper coil that coils around a quartz cuvette. Currents with frequencies in the radio frequency range are obtained by using a RF generator with a current amplifier. The RF is pulsed at 15 second intervals. The RF power levels are varied from −8 dBm to −0.1 dBm. The MF frequency used is 1 GHz.

Data set [2] deals with T1, Ribonuclease S (S-protein). The data set is described as above. Format: biochemical.

Entries after “also recorded” stand apart in the source; their conditions may differ. Where no end group is shown, it is not given here.

Regarding `NC(N)=NCCC[C@H](NC(=O)[C@@H]1CCCN1C(=O)[C@H](N)Cc1ccccc1)C(=O)CCl` [PPACK, D-Phe-L-Pro-L-Arg-chloromenthy ketone], the “Inhibition of thrombin activity” value on thrombin is “inhibitory effect”.

For “Au-S18: S18 peptide covalently linked via N-terminal cysteine to a single 1.4 nm gold nanocrystal; tested complexed with S-protein (CGGKETAAAKFERQHMDS; also: linked via N-terminal cysteine to a 1.4 nm gold nanocrystal)”, the “RF power at the 50% activity” value in data set [1] (1 GHz RFMF) is given as −4 dBm. Besides, the “Enzymatic activity when combined with S-protein, no RF (RF OFF state)” value (“Enzymatic activity … no RF (RF OFF state)” for short) in data set [1] is “active”; in data set [2] (listed as gold nanoparticle linked S-peptide) it was “indistinguishable from the S-peptide without the nanoparticles”. The “Effect of higher RF levels on RNase S activity” value in data set [1] (RF −4, −3, −2 to −1 dBm, 1 GHz) was “drastic effect”. Moreover, the “Effect of low RF levels on RNase S activity” value in data set [1] (RF −8 to −5 dBm, 1 GHz) is reported as “no significant effect”. The “Activity once recovered after RF” value in data set [1] (after recovery time) is on record as “fully active”. In data set [1] (modulator linked to S-peptide, RFMF 1 GHz, entire concentration range), the “RNase S activity with the RFMF on compared with RFMF off as a function of modulator-S-peptide concentration” value is reported as “significantly less than with the RFMF off”. For the same compound, the “RNase S activity (digested polyC, A280) with the RFMF on compared with RFMF off” value is given as “reduced” in data set [1] (modulator linked to S-peptide, RFMF 1 GHz, listed as Au-S18/S peptide); “transiently halting the enzyme activity” in data set [1] (modulator linked to S-peptide, RFMF 1 GHz, listed as gold nanoparticle linked S-peptide); “less than with the RFMF off” in data set [1] (modulator linked to S-peptide, RFMF 1 GHz, listed as modulator S-peptide-S-protein complex).

Turning to “CGAGAG-AETEYDSLYPEDDL (CGAGAGAETEYDSLYPEDDL; thrombin inhibitory peptide: fibrin 414-27) [414-427, fibrin gamma chain fragment peptide]”, the “Inhibition of thrombin activity” value in the data set with thrombin was “strongly inhibit”.

“CGAGAG-NGDFEEIPEEYL (CGAGAGNGDFEEIPEEYL; thrombin inhibitory peptide: hirudin 53-64) [hirugen53-64, fragment of Hirudin]”: in the data set with thrombin, the Affinity for thrombin entry is “very high affinity”.

On to “CGAGAG-VRPEHPAETEYDSLYPEDDL (CGAGAGVRPEHPAETEYDSLYPEDDL; thrombin inhibitory peptide: fibrin 408-27) [408-427, fibrin gamma chain fragment peptide]”, for which the “Inhibition of thrombin activity” value with thrombin was “strongly inhibit”.

Hirudin: at thrombin, the Affinity for thrombin entry was “extremely high affinity” and the “Inhibition of thrombin activity” value is on record as “inhibits the enzymatic cleavage of fibrinogen by thrombin”.

In the case of “S15: residues 1 to 15 of the wild type S-peptide of ribonuclease S (KETAAAKFERQHMDS) [reference compound]”, the results for the “Enzymatic activity … no RF (RF OFF state)” value in data set [1] and in data set [2] (listed as S-peptide with only the N-terminal 15 residues) were “full enzymatic activity” and “completely restored the enzymatic activity”, respectively.

For the compound n-CGGKETAAAKFERQHMDS-c (S18 peptide), the “Enzymatic activity … no RF (RF OFF state)” value in data set [1] is given as “restored the RNase S enzyme activity; also recorded: indistinguishable from that of the S15 native peptide”.

The values are drawn from patent US6953656B2, “Direct, externally imposed control of polypeptides” (Massachusetts Institute of Technology, priority 2000, dated 2005).
